Measured values taken from publication PMC10784507.

Target: holo-SDHA-SDHAF2 complex (preformed from purified proteins) (human) (UniProt P31040)
Test: pull-down; preformed holo-SDHA-SDHAF2 (2 µM, His6 on SDHA) incubated with SDHAF4 or its variants, with or without 5 mM fumarate, 30 min 25 °C, then held on Ni-NTA agarose; SDS-PAGE with Coomassie, western blot for the truncated variants

Sequence of holo-SDHA-SDHAF2 complex (preformed from purified proteins) (human) (P31040 43-664, chain 1 of 2): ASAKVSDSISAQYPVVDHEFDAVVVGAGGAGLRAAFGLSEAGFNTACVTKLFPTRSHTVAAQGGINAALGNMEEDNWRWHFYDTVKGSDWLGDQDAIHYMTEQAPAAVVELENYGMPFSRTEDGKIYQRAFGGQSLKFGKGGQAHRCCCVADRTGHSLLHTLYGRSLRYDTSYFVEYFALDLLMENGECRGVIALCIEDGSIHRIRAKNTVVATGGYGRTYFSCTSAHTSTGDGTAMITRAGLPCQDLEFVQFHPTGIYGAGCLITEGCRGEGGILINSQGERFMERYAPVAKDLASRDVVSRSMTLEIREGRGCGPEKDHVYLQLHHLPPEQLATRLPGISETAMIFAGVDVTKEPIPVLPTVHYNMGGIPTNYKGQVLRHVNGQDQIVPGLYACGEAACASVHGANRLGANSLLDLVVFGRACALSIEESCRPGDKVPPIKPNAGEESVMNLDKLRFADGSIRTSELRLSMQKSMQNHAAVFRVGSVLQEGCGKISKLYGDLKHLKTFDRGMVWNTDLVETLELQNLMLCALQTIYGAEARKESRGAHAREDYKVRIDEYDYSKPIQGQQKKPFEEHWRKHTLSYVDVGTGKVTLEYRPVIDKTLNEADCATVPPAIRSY
Sequence of holo-SDHA-SDHAF2 complex (preformed from purified proteins) (human) (Q9NX18 37-166, chain 2 of 2, further chain): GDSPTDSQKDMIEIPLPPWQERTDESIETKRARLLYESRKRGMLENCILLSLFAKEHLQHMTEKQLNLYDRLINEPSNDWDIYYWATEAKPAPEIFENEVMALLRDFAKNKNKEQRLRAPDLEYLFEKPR
Sequence of SDHAF4^E92N (Q5VUM1 21-108 E92N, stated change not applied): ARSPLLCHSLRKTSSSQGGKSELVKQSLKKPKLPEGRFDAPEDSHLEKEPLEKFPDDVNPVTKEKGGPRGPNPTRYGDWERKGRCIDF

Substance: SDHAF4^E92N (from UniProt Q5VUM1 21-108) (natural protein)
- percent of SDHAF2 displaced from the SDHA-AF2 complex: 40 to 50%
